The source of these data is article PMC9482650, “Quantitative fragmentomics allow affinity mapping of interactomes” (Nature Communications, 2022).

By pKd is commonly meant −log10 of the Kd, conventionally taken in molar units.

Common to all, as to assay: holdup assay
Settings in all cases: plain residues with an end cap or a label only (N-terminal biotin on a linker: none)

In assay [1] the target is AHNAK2, Q8IVF2.
The target in assay [2] is T1, GIPC1, O14908.
T1 sequence (O14908 128-223, limits assumed, looked up): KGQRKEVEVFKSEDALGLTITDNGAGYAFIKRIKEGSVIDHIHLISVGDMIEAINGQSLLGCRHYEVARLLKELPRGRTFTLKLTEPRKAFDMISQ

The target of assay [3] is T2, INTU, Q9ULD6.
T2 sequence (Q9ULD6 180-273, limits assumed, looked up): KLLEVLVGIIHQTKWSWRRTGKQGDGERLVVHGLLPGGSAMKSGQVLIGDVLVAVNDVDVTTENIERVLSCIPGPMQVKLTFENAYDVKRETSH

Assay [4] addresses MAGI1_4, Q96QZ7.
Assay [5] deals with MAGI1_6, Q96QZ7.
Assay [6] addresses MAGI3_6, Q5TCQ9.
In assay [7] the target is T3, MPDZ_11, O75970.
T3 sequence (O75970 1720-1817, limits assumed, looked up): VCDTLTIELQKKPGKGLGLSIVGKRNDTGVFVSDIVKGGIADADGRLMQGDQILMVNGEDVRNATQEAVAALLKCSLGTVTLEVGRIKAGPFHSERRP

In assay [8] the target is T4, MPDZ_7, O75970.
T4 sequence (O75970 1146-1253, limits assumed, looked up): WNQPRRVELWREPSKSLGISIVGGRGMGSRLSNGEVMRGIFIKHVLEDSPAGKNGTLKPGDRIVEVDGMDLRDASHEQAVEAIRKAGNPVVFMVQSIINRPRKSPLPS

Assay [9] addresses T5, MPP1, Q00013.
T5 sequence (Q00013 66-162, limits assumed, looked up): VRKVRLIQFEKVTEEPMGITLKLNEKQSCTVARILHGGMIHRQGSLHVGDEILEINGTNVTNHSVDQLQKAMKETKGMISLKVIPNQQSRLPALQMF

The target of assay [10] is T6, NHERF1_1, O14745.
T6 sequence (O14745 9-104, limits assumed, looked up): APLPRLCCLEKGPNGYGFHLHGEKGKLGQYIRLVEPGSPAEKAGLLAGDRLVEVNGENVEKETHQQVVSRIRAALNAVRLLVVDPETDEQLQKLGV

Assay [11] addresses PARD3B_3, Q8TEW8.
In assay [12] the target is T7, PDLIM3, Q53GG5.
T7 sequence (Q53GG5 1-94, limits assumed, looked up): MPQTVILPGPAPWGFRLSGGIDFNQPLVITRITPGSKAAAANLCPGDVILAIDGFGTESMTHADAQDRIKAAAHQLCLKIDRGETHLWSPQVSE

The target in assay [13] is PDLIM4, P50479.
The target in assay [14] is T8, PDZD2_5, O15018.
T8 sequence (O15018 2617-2716, limits assumed, looked up): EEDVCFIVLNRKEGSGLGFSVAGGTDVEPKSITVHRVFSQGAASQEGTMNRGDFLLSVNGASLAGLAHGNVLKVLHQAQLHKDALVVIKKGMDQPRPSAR

The target of assay [15] is T9, PDZD2_6, O15018.
T9 sequence (O15018 2745-2839, limits assumed, looked up): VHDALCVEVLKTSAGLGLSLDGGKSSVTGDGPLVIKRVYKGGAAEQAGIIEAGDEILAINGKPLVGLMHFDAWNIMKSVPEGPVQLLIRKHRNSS

The target of assay [16] is T10, PDZD8, Q8NEN9.
T10 sequence (Q8NEN9 361-459, limits assumed, looked up): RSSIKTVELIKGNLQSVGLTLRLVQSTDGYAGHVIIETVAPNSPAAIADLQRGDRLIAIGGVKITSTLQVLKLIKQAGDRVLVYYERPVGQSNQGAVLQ

Assay [17] addresses PDZD9, Q8IXQ8.
Assay [18] concerns the target SCRIB_4, Q14160.
Assay [19] has as its target SDCBP_1, O00560.
For assay [20], the target named is T11, SHANK3, Q9BYB0.
T11 sequence (Q9BYB0 641-750, limits assumed, looked up): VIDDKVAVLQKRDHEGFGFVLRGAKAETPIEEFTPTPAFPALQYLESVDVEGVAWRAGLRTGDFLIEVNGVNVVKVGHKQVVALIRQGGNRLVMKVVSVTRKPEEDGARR

Assay [21] concerns the target T12, SNTB2, Q13425.
T12 sequence (Q13425 110-208, limits assumed, looked up): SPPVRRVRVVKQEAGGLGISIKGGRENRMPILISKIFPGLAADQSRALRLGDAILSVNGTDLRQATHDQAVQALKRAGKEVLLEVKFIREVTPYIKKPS

Assay [22] deals with T13, SYNPO2L, Q9H987.
T13 sequence (Q9H987 1-98, limits assumed, looked up): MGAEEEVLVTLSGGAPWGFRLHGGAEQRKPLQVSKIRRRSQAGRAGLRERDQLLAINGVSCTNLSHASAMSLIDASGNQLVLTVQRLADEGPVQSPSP

The target of assay [23] is T14, USH1C_3, Q9Y6N9.
T14 sequence (Q9Y6N9 447-547, limits assumed, looked up): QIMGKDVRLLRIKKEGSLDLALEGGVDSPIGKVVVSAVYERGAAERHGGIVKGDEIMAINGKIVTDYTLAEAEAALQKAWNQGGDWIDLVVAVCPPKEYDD

SCRIB_4, Q14160, sequence (Q14160 1095-1204): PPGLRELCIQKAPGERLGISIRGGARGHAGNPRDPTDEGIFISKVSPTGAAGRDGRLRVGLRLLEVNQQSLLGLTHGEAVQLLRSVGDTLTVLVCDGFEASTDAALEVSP
PDZD9, Q8IXQ8, sequence (Q8IXQ8 23-120): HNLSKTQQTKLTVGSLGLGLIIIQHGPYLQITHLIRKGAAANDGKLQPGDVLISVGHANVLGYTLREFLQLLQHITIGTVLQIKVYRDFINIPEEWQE
AHNAK2, Q8IVF2, sequence (Q8IVF2 108-193): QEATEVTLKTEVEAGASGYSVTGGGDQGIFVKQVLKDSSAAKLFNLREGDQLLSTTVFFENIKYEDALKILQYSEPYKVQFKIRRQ
SDCBP_1, O00560, sequence (O00560 111-198): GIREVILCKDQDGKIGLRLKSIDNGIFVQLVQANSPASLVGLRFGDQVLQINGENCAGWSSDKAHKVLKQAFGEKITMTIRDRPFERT
MAGI1_4, Q96QZ7, sequence (Q96QZ7 other isoform, or with tags, fused parts or gaps): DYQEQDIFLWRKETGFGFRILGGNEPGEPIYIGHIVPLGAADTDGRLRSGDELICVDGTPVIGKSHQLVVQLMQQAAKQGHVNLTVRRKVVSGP
PARD3B_3, Q8TEW8, sequence (Q8TEW8 490-594): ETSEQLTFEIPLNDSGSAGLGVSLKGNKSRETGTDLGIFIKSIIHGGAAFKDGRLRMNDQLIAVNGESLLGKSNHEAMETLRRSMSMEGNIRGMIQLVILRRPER
PDLIM4, P50479, sequence (P50479 1-83): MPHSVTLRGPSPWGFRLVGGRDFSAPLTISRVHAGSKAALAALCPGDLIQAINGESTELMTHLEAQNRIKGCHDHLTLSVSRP
MAGI3_6, Q5TCQ9, sequence (Q5TCQ9 1014-1103): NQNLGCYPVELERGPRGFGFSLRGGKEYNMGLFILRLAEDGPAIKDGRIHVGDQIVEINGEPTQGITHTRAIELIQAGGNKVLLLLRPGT
MAGI1_6, Q96QZ7, sequence (Q96QZ7 1146-1238): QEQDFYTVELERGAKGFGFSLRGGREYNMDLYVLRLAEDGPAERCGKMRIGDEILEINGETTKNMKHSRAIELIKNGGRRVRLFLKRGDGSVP

B1: SARS-CoV2-E, P0DTC4 (peptide)
chain: NLNSSRVPDLLV
Turning to B1, the pKd entry is “below the threshold” in assay [1]; “below the threshold” in assay [2]; “below the threshold” in assay [3]; 3.75 in [4]; “below the threshold” in [5]; “below the threshold” in [6]. Besides, the negative-log Kd (pKd) result in assay [7], in [8], in assay [9], in assay [10], in assay [11] and in assay [12] was “below the threshold” throughout. Further, the pKd entry was “below the threshold” in assay [13]; “below the threshold” in assay [14]; 4.07 in assay [15]; “below the threshold” in assay [16]; 3.94 in assay [17]; “below the threshold” in [18]. Moreover, the pKd entry in assay [19] is “below the threshold”; in assay [20] it was 3.83; in assay [21], “below the threshold”; in assay [22], “below the threshold”; in assay [23], “below the threshold”.
